Assay results reported in the DeepSol protein solubility set.

Assay: soluble on expression in E. coli; label from the status in PepcDB or PDB records

Row | Sequence | soluble on expression in E. coli
1 | MIRIELPTLIAKLNAQSKLALEQAASLCIERQHPEVTLEYYLDVLLDNPLSDVRLVLKQAGLEVDQVKQAIASTYSREQVLDTYPAFSPLLVELLQEAWLLSSTELEQAELRSGAIFLAALTRADRYLSFKLISLFEGINRENLKKHFAMILSDSAETAVAKTDKNAANPLQAAAETPLGRFCTNVTEQARNGELDPVLSRENELNLMVDILCRRRKNNPIVVGEAGVGKSAMIEGLALRVVAGKVPTQLQNVELYSLDLGRLQAGASVKGEFEKRLKGVIDAIKQSPKPIILFIDEAHTLIGSGNQEGGSDAANLLKPALARGELSTVAATTWKEYKKYFEKDPALTRRFQLVKLDEPTIDQAVDILRGLNSVYEKAHNVLITDDALKAAAELSARYISGRQLPDKAIDVLDTACARIAINMTTPPKRLALLETLCHQRQLEIDMLERAQFLGQEVDSERLDVLRNQELADEAEKAALTQSWQQQKSLVESIIALRAELMELSQAQEQDPDHLLVVRTALQEQYQALDAIDHAERLMHPQVDADQIAEVIADWTGVPVDQMNTDELHKITHLTSILGQAIKGQETAIERIHRHLLTARADLRRPGRPKGAFLLVGPSGVGKTETVVQLAEQLYGGKQFLTTINMSEYQEKHTVSRLIGSPPGYVGYGEGGVLTEAIRKMPYSVVLLDEVEKAHPEVLNIFYQGFDKGEIADGEGRVIDCQNIVFFLTSNLGYQTIVDYADEPAKLDEALYPELAAFFKPALLARMEVIPYLPLGKEVLAQIVRGKLARLEKLFKTRYNAEVVIEESLIDEILSRATRSENGARMLEAIIEGQLLPPVSLALLNKLAERAPVERIRLAAEAGEFIGEVA | not soluble
2 | MARLTVHTLETAPEAAKARVEAVLQNNGFIPNLIGVLSNAPEALAFYQEVGKLNAANSLTAGEVEVIQIIAARTNQCGFCVAGHTKLATLKKLLSEQSVKAARALAAGEFDDAKLGALAAFTQAVMAKKGAVSDEELKAFFDAGYNQQQAVEVVMGVALATLCNYVNNLGQTEINP | not soluble
3 | MGSDKIHHHHHHMIIQSKLIRAALVCAAKNDVRYYLNGLHITPKHIEATNGSVALRMAHGIRTKKNIIVQFEGGVPAKAETTELIFSKEPIAVHRDQFQRRLSITGIKLVDGCFPDLDRIIPKKFDRCTHPVLQAGYLSYPEKMFGRERKFIPVQLRPSGDGQAVRIQFDSIINSMYGNPEFVVMPCRDHGDFNVAQEHPE | not soluble
4 | MVGGMMESYSKFHTILNELKHSAAQFDRQRGEHHRPLFDEVLFHCHGKLLTPCVEEAHSTLQALIREKESGRLTALRAEYLSERLLAQIAALTRELSTQNVRRNEPKPHAYFKKPINELYQELAQHQDWERRLMDLVRDKALLLEQASATEKAAAQQALLQSEQRLNRCREAKIKIEKRITTQERKA | not soluble
5 | MSPAITRKRFIAGAVCPACSEQDKIQMWEEDGVPHRECVACGYADTLNAQGQSIPKELGTRVNQNAPKPANPKVQSVQFFPNPKLKKKPDA | not soluble
6 | MATSRFQAFLNSPIGPKTTHFWGPIANWGFVAAGLVDMQKPPEMISGNMSSAMCVYSALFMRFAWMVQPRNYLLLACHASNETVQLYQLSRWARAQGYLSSKKEEEKPSQ | not soluble
7 | MGSDKIHHHHHHMKFPLLLALLVGGASALHLSSETSDSKSPLMDENLPRDAEISGPEGEECPPGEELMPLEGEKEEGSGSEGVPGDEGAVSGQDVTDVDLQCPKEEDTTSLMGDSGCKTCRYLLVRRAECFDKAQSVCRRCYRGTLASIHSFSVNFGIQSAVRGINQGQVWIGGRIKGWGRCKRFRWVDGSSWNFAYWAAGQPCPGGGRCVTLCTQGGHWRLSHCVKRRPFICSY | not soluble
8 | MNAEERFDRITRLTRRIFALPICVVTLVDASRQWFKSCQGLEVTETSRDISFCGHAINHDGIFIVNDAQMDPRFHDNPLVTQSPHIRFYAGYPLTIRGEYRVGTLCLIGNEPREFSADDIETLTDLGQMVEAELLSISLNTLDPLEHHHHHH | not soluble
9 | MPLEASELKPTAGPLEASELKPTAGPLEASELKPTAGPLEASELKPTAGPLEASELKPTAGPLEASELKPTAGPLEASELKPTAGMEKTKKIAVMSGKGGVGKTTVAVNLAVALAAEGYQVGLLDLDLHGPNVQRMLGVSLPPSEGEKIVPAKYGDSLKVFSLAMILQEGAPVIWRGPLKHKAIEQLTRDVEWGDLDYLICDLPPGTGDEALSTFQIIKPDAVIVVSTPQKVAGDDVRRAINFVKRLSGKILGLVENMSYLVCPNCGEKIYVFGKGETEKLAEEFGIPLIARIPMDPEVVSLSDEGRPAVVYKRGTVIEEEFKKIVEKVLSLLEHHHHHH | not soluble
10 | MAGDPMITVVGVRFKKAGKIYYFSPGDLNINKGDDVIVETARGIEYGNCVIGLKQVGEESIVSPLKSVIRVATDEDEIKYRENKNKEKEAFNICLSKIKKHELVMKLIDVEYTFDNNKIIFYFTAEGRVDFRELVKDLASVFRTRIELRQIGVRDEAKMIGGFGVCGRPMCCALYLGDFAPVSIKMAKEQNLSLNPSKISGVCGRLMCCLNYEQETYETIRKRMPKVGSIVSTKEYGKAEVVDNNIIKEAVKIKFTAEDGESISEAEVHIKDLKLISGSYEGNVDESQIKLELEDVDAKEVKELFKTDLEHHHHHH | not soluble
11 | MVTPFPEVSEWLCIGQIVGAHGLRGEVKVKPFSDFPERFTVPGCRWLRSPRQPQPYAVTLLRGRFLPRAEQFVVTFAEISDRTAAEALKGAEILVPASDRPPLAANEYHLMDLIGLAVYHQGERVGEVVGLVNAGNDLLEVQLLDPAPKAPQSVYIPFVPAIVPVVDLAARRIEIDPPLGLLPLEHHHHHH | not soluble
12 | MVNQQEEINLSVALVTRNRPDSLERCLKSLRDQKVQPFEVVVSDDSDDLYKSSTKEIAQKWGCRYIDGPKRGLYANRNYVALACYGTHIRTMDDDHEFPEQHIEVCLNAIQSDPSSIWIIGEYSPTSSIENAPHPCPGQLHPRGFSFYPKDTQNCWAIADGASIYPKKIFASGLRFVEYYKFGASYLEWGSRLYYLSYRIRHLDSTYIIHHFNPKARSFSDQEMDQSSRFFAMLCHSFLYQSTFKNKCLFSYEILKQFILDPKLTIKCIINSWSNFELFSRSFCALEHHHHHH | not soluble
13 | MNVNIDSEQLFTEEKPKDYAQPEVLCHTFELLSNLHKLLPNRTVEVLHSYRSEEDKRKCEKPEFSGIEKILARHQLPKEINLSPKPSHVPSWKRKIINNISGNWKKCRLWQKSIYEPPMGTIIVRWTKKNLQPSEDLKSVIQRLSALGPIISVTPCGRESAVVVFRDAASACKAVSAFQTMSADSMFHCSWQHRFMSKNKTWSRRYPSKIHAEKKEKHP | not soluble
14 | MSLSVPQKRYFLGLHIGHDRAITVADDTNLVFHTAVERLDRKKHSDSFHLPVEEIKTVLLYLNVDVSELRGVCISYLAVDASRVSMTLEASFRDAFPDFEGRFSALDHHLAHALGAKVCSGFDEALVVVADGAGDQRLWGSQSETIYHVSSDTFYLLDERVQSPPLTYINRPEFYDPSYFRPDDQERQISLGLKYEQITYLCGFGPGQAGQTMALAAFGKPLFDYRNMLPKDLSFSLRYTDFLREFEALARADGLSLIQFAKSRRSDIAATYQAYLSEALSAIVKDALDRFPSKRVCFSGGLFLNCLSNRRLHDEHPDRELFFFPACNDEGQSIGTAAYAYWQEHSRLPREGHHHHHH | not soluble
15 | MMNQLRVTRKEPVKIRIQRKTSQNHAKGIEEMEMAVAVGVKMGQDAVEGNWKRKIIPKKTAIREILKSDEEITVRHLKIGLKSRRLPSCLIRKEPKDNNVSYEETGEGEYFEEENRKNSNNANSSNSRNTGRGNKGGKERESLNDNESSNEETEGRRSVKKTNTLNEDNNGNSIRKESNLSNDEETDEVVDTHRINTEDDEEDEEKPPTEKGTPKRKDRKSDSRSTSKGFGSGGRGRAEYTEDGDDDESNRRSVNFEKDGNGRMVKTETERSSTHAQDYDKKGSKKKKHRVSENGSEEEEVSTSFSSSSSKSSSSSSLSRRTTWDGNNNNTNRRRRNRFD | not soluble
16 | MNHQETMTDYLMAFIEGLKNSGVEQAVISPGSRSTPLALLLHRETAIQTFVDVDERSAAFFALGLSKASQKPVVLLCTSGTAAANYYPAICEANISHVPLVVLTTDRPHELRQVGAPQAMDQLQMYQNHVKLFVEMALPEATEEMLNYAYWQGAKGAAFAQQTPAAPVHLNFPLREPLLPDLERKTKSSQQTALFAGQSILSTEQVQQLADQWYQKNGVLVVGGSHTEEEATLFIQLAEALQWPLLADPLANIVTHGQNSEVVIAHSDLFLNVATLPQEPEVVVRFGSLPISKNIMLWLKRLATTETAFYFVDENGQWQEQLKKSQTVIQAKETTFVEQLLTVVKPTEATWLAQWLLLEKTVSEVLLETLNATELNETTASLAVHQTMKENGQLFVSNSMAIRYLDRFMDSRPYRMFGNRGINGIDGIVSTALGMSAIAPTQQNVLLIGDLALYHDMNGLFLAKRYQLPLTIVLLNNNGGGIFSFLSQRTLREDDFEPLFGTPLDLDFSLVAELYGASYQEVKTIAELKQILQAAAEEPQFQVIEVKGNRQENVHLYESILAEIGRRVERQGISWNG | not soluble
17 | MLRQWWLRSVGSCSTVYRAHSGCSTSAAVKPKRAIPTDGLQLSDFIKESTKKQRQKAIIPSIEDTKEYLNPEDLQGNGRTVCYVTYGCQMNVSDMEIVRSIMTKYGFVESDKKENADIVLLMTCSIRDGAEKKVWNQLKLIRSNSVNKGQIVGVLGCMAERVRHDLLEKRNLVNIVAGPDSYRDLPRLVAVAAGGSNGINVQLSLDETYADVQPIRVDSASKTAFISIMRGCDNMCTYCVVPFTRGRERSRPIESIVEEVQRLRDQGYKQVTLLGQNVNSYRDMTSMDFSMAPSTSQEDRVPGFKTVYKPKSGGLTFTTLLEKVADAAPDIRFRFTSPHPKDFPMQLIELIASRPNLCKQLHLPAQSGDDETLERMERGYTRDLYLRLVDDIRHVLPSVSLTSDFIAGFCGETEQAHQNTLSLIRAVRYSFCFVFPYSMRGKTRAHHRLTDDVPEDVKARRHLDLTTVFREEALKLNQALIGSEQTVLLEGKSKRDASFSHGRIDGGVKAVFDNSKLCLEPGQYAKILITDANSQTLKAQLIGQSSI | not soluble
18 | GSSHHHHHHSSGRENLYFQGHMARPGMERWRDRLALVTGASGGIGAAVARALVQQGLKVVGCARTVGNIEELAAECKSAGYPGTLIPYRCDLSNEEDILSMFSAIRSQHSGVDICINNAGLARPDTLLSGSTSGWKDMFNVNVLALSICTREAYQSMKERNVDDGHIININSMSGHRVLPLSVTHFYSATKYAVTALTEGLRQELREAQTHIRATCISPGVVETQFAFKLHDKDPEKAAATYEQMKCLKPEDVAEAVIYVLSTPAHIQIGDIQMRPTGS | soluble
19 | YSSAYKEFIKKSMKYRTEEDTFTDANGLAGCRYWSPKNYEKIARMMAQPKYKPAFAYLFFFRSYVNDQQITSCVFQVQRDGMPESILVQPVLRDESSVTLE | not soluble
20 | MKQGTMKILFFVLKTKLLKNGEAPILMRITINGQYEETRIQRSVPLKLWNAAKGCSKGKDRASNELNSYLSELATRALEKYKELILEQAISTPSLILKRVFGKDTEMRTLLGTIRQEIKEMEKVVNIDYAPVTINRYKNVLKKLENSIPTFYDKEDITFHELTPEFIKAFDLHLKTEVGLCRNTIVRYMKCFKKITNMALAKGWMKKDAFYGYKMEQDETDPVFLTYDELQTVMNKEFTIPRLVLVRDIFIFACFTGLAFADVSTLKKEDLVQDNNGDWWIRKGRIKLMHRHKASSICNIPLLPVPLAILKKYENNPVCIKKGCCLPVPCNQKMNSYLKEIADFCGIKKNITTHAGRHTFGTTITLANNVPLQDVSVMLGHASTRMTQHYARVMNASLKKSMLNVKKRLTQ | not soluble
